From PMC10208982, “Structural basis of catalytic activation in human splicing” (Nature, 2023)

Target: T1, PRP2(137–1022) (human, UniProt O60231 137-1022)
T1 construct: comprises the modelled NTD (pin, clip, hook) and the helicase core; The tag can be cleaved off with HRV-3C protease; also called recombinant PRP2; source: Sf9 or Hi5 insect cells, purified (Strep-Tactin, then SEC or Q Sepharose); also co-expressed with PPIL4 in Sf9, in lysate; not shown: Twin-StrepII, N-terminal, kept
T1 sequence (looked up): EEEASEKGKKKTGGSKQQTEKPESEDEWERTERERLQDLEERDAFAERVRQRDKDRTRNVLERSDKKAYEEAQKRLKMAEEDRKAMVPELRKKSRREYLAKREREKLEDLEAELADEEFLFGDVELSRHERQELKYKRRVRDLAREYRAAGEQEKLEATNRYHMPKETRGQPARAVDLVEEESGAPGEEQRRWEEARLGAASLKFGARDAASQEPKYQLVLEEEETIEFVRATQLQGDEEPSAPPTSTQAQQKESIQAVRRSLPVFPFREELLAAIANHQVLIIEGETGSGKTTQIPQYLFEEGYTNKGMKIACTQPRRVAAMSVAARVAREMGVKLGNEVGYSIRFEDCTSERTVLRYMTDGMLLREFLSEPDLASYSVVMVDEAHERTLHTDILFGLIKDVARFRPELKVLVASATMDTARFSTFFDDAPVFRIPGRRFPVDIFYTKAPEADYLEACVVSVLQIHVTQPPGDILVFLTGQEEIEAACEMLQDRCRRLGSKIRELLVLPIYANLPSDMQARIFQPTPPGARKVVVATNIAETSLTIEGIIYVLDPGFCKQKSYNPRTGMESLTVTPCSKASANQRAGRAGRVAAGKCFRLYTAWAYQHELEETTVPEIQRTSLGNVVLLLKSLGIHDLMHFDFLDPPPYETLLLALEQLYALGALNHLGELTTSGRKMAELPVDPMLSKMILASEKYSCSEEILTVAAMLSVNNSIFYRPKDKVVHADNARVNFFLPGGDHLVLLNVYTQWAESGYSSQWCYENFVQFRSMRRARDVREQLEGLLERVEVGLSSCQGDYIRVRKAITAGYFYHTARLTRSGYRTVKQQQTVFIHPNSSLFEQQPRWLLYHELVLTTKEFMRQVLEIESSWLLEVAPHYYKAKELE
Experiment: SEC; around 30 μg PRP2(137–1022) mixed with a 5-fold excess of cofactor in 100 μl, 1 h on ice; Superdex 200 Increase 10/300 GL; 20 mM HEPES-KOH pH 7.5, 100 mM KCl, 1.5 mM MgCl2, 5% glycerol; fractions analysed by SDS-PAGE
Conditions: both partners purified

- binding result: binds
B1: GPKOW (natural protein, human, UniProt Q92917 1-476, looked up)
chain: MADSKEGVLPLTAASTAPISFGFTRTSARRRLADSGDGAGPSPEEKDFLKTVEGRELQSVKPQEAPKELVIPLIQNGHRRQPPARPPGPSTDTGALADGVVSQAVKELIAESKKSLEERENAGVDPTLAIPMIQKGCTPSGEGADSEPRAETVPEEANYEAVPVEAYGLAMLRGMGWKPGEGIGRTFNQVVKPRVNSLRPKGLGLGANLTEAQALTPTGPSRMPRPDEEQEKDKEDQPQGLVPGGAVVVLSGPHRGLYGKVEGLDPDNVRAMVRLAVGSRVVTVSEYYLRPVSQQEFDKNTLDLRQQNGTASSRKTLWNQELYIQQDNSERKRKHLPDRQDGPAAKSEKAAPRSQHWLHRDLRVRFVDNMYKGGQYYNTKMIIEDVLSPDTCVCRTDEGRVLEGLREDMLETLVPKAEGDRVMVVLGPQTGRVGHLLSRDRARSRALVQLPRENQVVELHYDAICQYMGPSDTDDD
notes: human GPKOW, codon-optimized synthetic gene (GeneArt); also called PRP2 cofactor GPKOW; source: Sf9 or Hi5 insect cells, purified (Strep-Tactin, SEC); not shown: Twin-StrepII, N-terminal, kept
